{"source": "patent US11278600B2", "about": "“Human alpha-galactosidase variants” (Codexis, Inc., priority 2014, dated 2022)", "format_in_all_cases": "biochemical", "key": {"[1]": {"assay": "HTP-analysis of yeast culture supernatants, no challenge (MUGal hydrolysis)", "details": "activity of the variant/activity of Rd3BB (SEQ ID NO: 13), yeast culture supernatant", "in_short": "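GLA variants expressed in yeast INVSc1, secreted into SD-Ura broth over 66-84 h at 30° C; clarified supernatants tested without challenge. Supernatant mixed with McIlvaine buffer pH 4.8 and 2 mM MUGal (citrate/KCl, pH 4.6), 37° C for 30-180 min, carbonate-quenched, fluorescence Ex 355/Em 448 nm.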"}, "[2]": {"assay": "HTP-analysis of supernatants pretreated with acid (MUGal hydrolysis)", "details": "challenge at pH 4.0; activity of the variant/activity of Rd3BB (SEQ ID NO: 13); yeast culture supernatant", "in_short": "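GLA variants were secreted from INVSc1 yeast grown 66-84 h at 30° C. in SD-Ura with 2% glucose; supernatants were mixed with McIlvaine buffer pH 3.3-4.3 and held at 37° C. for 1-3 h. Residual activity on MUGal at pH 4.8 was then measured by fluorescence.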"}, "[3]": {"assay": "HTP-analysis of supernatants pretreated with base (MUGal hydrolysis)", "details": "challenge at pH 8.2; activity of the variant/activity of Rd3BB (SEQ ID NO: 13); yeast culture supernatant", "in_short": "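GLA variants secreted from yeast INVSc1; culture supernatants pre-incubated with McIlvaine buffer pH 7.0–8.2 or 200 mM bicarbonate pH 9.1–9.7 at 37° C. for 1–18 h. Residual activity: MUGal (4 mM stock) hydrolysis at pH 4.3–4.8, 37° C., 30–180 min, carbonate quench; fluorescence Ex 355/Em 448 nm.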"}, "[4]": {"assay": "HTP-analysis of supernatants pretreated with bovine serum (MUGal hydrolysis)", "details": "activity of the variant/activity of Rd3BB (SEQ ID NO: 13), yeast culture supernatant", "in_short": "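Yeast INVSc1 culture supernatants containing secreted GLA variants were mixed with bovine serum (20:80) and held 1 h at 37° C. Serum-treated samples then reacted with MUGal (4 mM stock) in citrate/McIlvaine buffer (pH 4.3/4.8) for 180 min at 37° C., were quenched with sodium carbonate, and read by fluorescence (Ex 355, Em 448 nm).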"}}}
{"molecule": "310 (protein, Synthetic Polypeptide sequence of Variant No. 310 of mature Human GLA) LDNGLARTPTMGWLHWERFMCNLDCQEEPDSCISEKLFMEMAELMVSEGWKDAGYEYLCIDDCWMAPQRDSEGRLQADPQRFPHGIRQLANYVHSIGLKLGIYADVGNKTCAGFPGSFGYYDIDAQTFADWGVDLLKFDGCYCDSLENLADGYKHMSLALNRTGRSIVYSCEWPLYMWPFQKPNYTEIRQYCNHWRNFADIDDSWASIKSILDWTSFNQERIVDVAGPGGWNDPDMLVIGNFGLSWDQQVTQMALWAIMAAPLFMSNDLRHISPQAKALLQDKDVIAINQDPLGKQGYQLRQGDNFEVWERPLSGLAWAVAIINRQEIGGPRSYTIAVASLGKGVACNPGCFITQLLPVKRKLGFYNWSSRLKSHINPTGTVLLQLENTMQMSLKDLL", "values": [{"measurement": "Relative Activity of GLA Variants After No Challenge (NC)", "setting": "[1]", "value": "− (− = <0.5 relative activity to Rd3BB (SEQ ID NO: 13))"}, {"measurement": "Relative Activity of GLA Variants After Challenge at pH 4.0", "setting": "[2]", "value": "+ (+ = 0.5 to 1.5 relative activity over Rd3BB (SEQ ID NO: 13))"}, {"measurement": "Relative Activity of GLA Variants After Challenge at pH 8.2", "setting": "[3]", "value": "+ (+ = 0.5 to 1.5 relative activity over Rd3BB (SEQ ID NO: 13))"}, {"measurement": "Relative Activity of GLA Variants After Challenge with Serum", "setting": "[4]", "value": "+ (+ = 0.5 to 1.5 relative activity over Rd3BB (SEQ ID NO: 13))"}]}
{"molecule": "316 (protein, Synthetic Polypeptide sequence of Variant No. 316 of mature Human GLA) LDNGLARTPTMGWLHWERFMCNLDCQEEPDSCISEKLFMEMAELMVSEGWKDAGYEYLCIDDCWMAPQRDSEGRLQADPQRFPHGIRQLANYVHSKGLKFGIYADVGNKTCAGFPGSFGYYDIDAQTFADWGVDLLKFDGCYCDSLENLADGYKHMSLALNRTGRSIVYSCEWPLYMWPFQKPNYTEIRQYCNHWRNFADIDDSWASVKSILDWTSFNQEKIVDVAGPGGWNDPDMLVIGNFGLSWNQQVTQMALWAIMAAPLFMSNDLRHISPQAKALLQDKDVIAINQDPLGKQGYQLRQGDNFEVWERPLSGLAWAVAVINRQEIGGPRSYTIAVASLGDGVACNPACFITQLLPVKRKLGFYNWTSRLKSHINPTGTVLLQLENTMQMSLKDLL", "values": [{"measurement": "Relative Activity of GLA Variants After No Challenge (NC)", "setting": "[1]", "value": "+ (+ = 0.5 to 1.5 relative activity over Rd3BB (SEQ ID NO: 13))"}, {"measurement": "Relative Activity of GLA Variants After Challenge at pH 4.0", "setting": "[2]", "value": "+ (+ = 0.5 to 1.5 relative activity over Rd3BB (SEQ ID NO: 13))"}, {"measurement": "Relative Activity of GLA Variants After Challenge at pH 8.2", "setting": "[3]", "value": "+ (+ = 0.5 to 1.5 relative activity over Rd3BB (SEQ ID NO: 13))"}, {"measurement": "Relative Activity of GLA Variants After Challenge with Serum", "setting": "[4]", "value": "+ (+ = 0.5 to 1.5 relative activity over Rd3BB (SEQ ID NO: 13))"}]}
{"molecule": "311 (protein, Synthetic Polypeptide sequence of Variant No. 311 of mature Human GLA) LDNGLARTPTMGWLHWERFMCNLDCQEEPDSCISEKLFMEMAELMVSEGWKDAGYEYLCIDDCWMAPQRDSEGRLQADPQRFPHGIRQLANYVHSIGLKLGIYADVGNKTCAGFPGSFGYYDIDAQTFADWGVDLLKFDGCYCDSLENLADGYKHMSLALNRTGRSIVYSCEWPLYMWPFQKPNYTEIRQYCNHWRNFADIDDSWASIKSILDWTSFNQERIVDVAGPGGWNDPDMLVIGNFGLSWDQQVTQMALWAIMAAPLFMSNDLRHISPQAKALLQDKDVIAINQDPLGKQGYQLRKGDNFEVWERPLSGDAWAVAIINRQEIGGPRSYTIPVASLGKGVACNPGCFITQLLPVKRKLGFYNWSSRLKSHINPTGTVLLQLENTMQMSLKDLL", "values": [{"measurement": "Relative Activity of GLA Variants After No Challenge (NC)", "setting": "[1]", "value": "+ (+ = 0.5 to 1.5 relative activity over Rd3BB (SEQ ID NO: 13))"}, {"measurement": "Relative Activity of GLA Variants After Challenge at pH 4.0", "setting": "[2]", "value": "+ (+ = 0.5 to 1.5 relative activity over Rd3BB (SEQ ID NO: 13))"}, {"measurement": "Relative Activity of GLA Variants After Challenge at pH 8.2", "setting": "[3]", "value": "++ (++ = >1.5 to 2.5 relative activity over Rd3BB (SEQ ID NO: 13))"}, {"measurement": "Relative Activity of GLA Variants After Challenge with Serum", "setting": "[4]", "value": "+ (+ = 0.5 to 1.5 relative activity over Rd3BB (SEQ ID NO: 13))"}]}
{"molecule": "313 (protein, Synthetic Polypeptide sequence of Variant No. 313 of mature Human GLA) LDNGLARTPTMGWLHWERFMCNLDCQEEPDSCISEKLFMEMAELMVSEGWKDAGYEYLCIDDCWMAPQRDSEGRLQADPQRFPHGIRQLANYVHSKGLKFGIYADVGNKTCAGFPGSFGYYDIDSQTFADWGVDLLKFDGCYCDSLENLADGYKHMSLALNRTGRSIVYSCEWPLYMWPFQKPNYTEIRQYCNHWRNFADIDDSWASVKSILDWTSFNQEKIVDVAGPGGWNDPDMLVIGNFGLSWNQQVTQMALWAIMAAPLFMSNDLRHISPQAKALLQDKDVIAINQDPLGKQGYQLRKGDNFEVWERPLSGLAWAVAIINRQEIGGPRSYTIAVASLGGGVACNPACFITQLLPVKRKLGFYNWTSRLKSHINPTGTVLLQLENTMQMSLKDLL", "values": [{"measurement": "Relative Activity of GLA Variants After No Challenge (NC)", "setting": "[1]", "value": "+ (+ = 0.5 to 1.5 relative activity over Rd3BB (SEQ ID NO: 13))"}, {"measurement": "Relative Activity of GLA Variants After Challenge at pH 4.0", "setting": "[2]", "value": "+ (+ = 0.5 to 1.5 relative activity over Rd3BB (SEQ ID NO: 13))"}, {"measurement": "Relative Activity of GLA Variants After Challenge at pH 8.2", "setting": "[3]", "value": "− (− = <0.5 relative activity to Rd3BB (SEQ ID NO: 13))"}, {"measurement": "Relative Activity of GLA Variants After Challenge with Serum", "setting": "[4]", "value": "+ (+ = 0.5 to 1.5 relative activity over Rd3BB (SEQ ID NO: 13))"}]}
{"molecule": "314 (protein, Synthetic Polypeptide sequence of Variant No. 314 of mature Human GLA) LDNGLARTPTMGWLHWERFMCNLDCQEEPDSCISEKLFMEMAELMVSEGWKDAGYEYLCIDDCWMAPQRDSEGRLQADPQRFPHGIRQLANYVHSKGLKFGIYADVGNKTCAGFPGSFGYYDIDAQTFADWGVDLLKFDGCYCDSLENLADGYKHMSLALNRTGRSIVYSCEWPLYMWPFQKPNYTEIRQYCNHWRNFADIDDSWASVKSILDWTSFNQERIVDVAGPGGWNDPDMLVIGNFGLSWDQQVTQMALWAIMAAPLFMSNDLRHISPQAKALLQDKDVIAINQDPLGKQGYQLRKGDNFEVWERPLSGLAWAVAVINRQEIGGPRSYTIAVASLGDGVACNPACFITQLLPVKRKLGFYNWTSRLKSHVNPTGTVLLQLENTMQMSLKDLL", "values": [{"measurement": "Relative Activity of GLA Variants After No Challenge (NC)", "setting": "[1]", "value": "+ (+ = 0.5 to 1.5 relative activity over Rd3BB (SEQ ID NO: 13))"}, {"measurement": "Relative Activity of GLA Variants After Challenge at pH 4.0", "setting": "[2]", "value": "++ (++ = >1.5 to 2.5 relative activity over Rd3BB (SEQ ID NO: 13))"}, {"measurement": "Relative Activity of GLA Variants After Challenge at pH 8.2", "setting": "[3]", "value": "++ (++ = >1.5 to 2.5 relative activity over Rd3BB (SEQ ID NO: 13))"}, {"measurement": "Relative Activity of GLA Variants After Challenge with Serum", "setting": "[4]", "value": "+ (+ = 0.5 to 1.5 relative activity over Rd3BB (SEQ ID NO: 13))"}]}
{"molecule": "312 (protein, Synthetic Polypeptide sequence of Variant No. 312 of mature Human GLA) LDNGLARTPTMGWLHWERFMCNLDCQEEPDSCISEKLFMEMAELMVSEGWKDAGYEYLCIDDCWMAPQRDSEGRLQADPQRFPHGIRQLANYVHSIGLKLGIYADVGNKTCAGFPGSFGYYDIDAQTFADWGVDLLKFDGCYCDSLENLADGYKHMSLALNRTGRSIVYSCEWPLYMWPFQKPNYTEIRQYCNHWRNFADIDDSWASIKSILDWTSFNQERIVDVAGPGGWNDPDMLVIGNFGLSWDQQVTQMALWAIMAAPLFMSNDLRHISPQAKALLQDKDVIAINQDPLGKQGYQLRKGDNFEVWERPLSGDAWAVAIINRQEIGGPRSYTIPVASLGKGVACNPGCFITQLLPVKRQLGFYNWTSRLKSHINPTGTVLLQLENTMQMSLKDLL", "values": [{"measurement": "Relative Activity of GLA Variants After No Challenge (NC)", "setting": "[1]", "value": "++ (++ = >1.5 to 2.5 relative activity over Rd3BB (SEQ ID NO: 13))"}, {"measurement": "Relative Activity of GLA Variants After Challenge at pH 4.0", "setting": "[2]", "value": "+++ (+++ = >2.5 relative activity over Rd3BB (SEQ ID NO: 13))"}, {"measurement": "Relative Activity of GLA Variants After Challenge at pH 8.2", "setting": "[3]", "value": "+++ (+++ = >2.5 relative activity over Rd3BB (SEQ ID NO: 13))"}, {"measurement": "Relative Activity of GLA Variants After Challenge with Serum", "setting": "[4]", "value": "+++ (+++ = >2.5 relative activity over Rd3BB (SEQ ID NO: 13))"}]}
{"molecule": "315 (protein, Synthetic Polypeptide sequence of Variant No. 315 of mature Human GLA) LDNGLARTPTMGWLHWERFMCNLDCQEEPDSCISEKLFMEMAELMVSEGWKDAGYEYLCIDDCWMAPQRDSEGRLQADPQRFPHGIRQLANYVHSKGLKFGIYADVGNKTCAGFPGSFGYYDIDAQTFADWGVDLLKFDGCYCDSLENLADGYKHMSLALNRTGRSIVYSCEWPLYMWPFQKPNYTEIRQYCNHWRNFADIDDSWASVKSILDWTSFNQERIVDVAGPGGWNDPDMLVIGNFGLSWNQQVTQMALWAIMAAPLFMSNDLRHISPQAKALLQDKDVIAINQDPLGKQGYQLRKGDNFEVWERPLSGLAWAVAVINRQEIGGPRSYTIAVASLGKGVACNPACFITQLLPVKRKLGLYNWTSRLKSHVNPTGTVLLQLENTMQMSLKDLL", "values": [{"measurement": "Relative Activity of GLA Variants After No Challenge (NC)", "setting": "[1]", "value": "+ (+ = 0.5 to 1.5 relative activity over Rd3BB (SEQ ID NO: 13))"}, {"measurement": "Relative Activity of GLA Variants After Challenge at pH 4.0", "setting": "[2]", "value": "+ (+ = 0.5 to 1.5 relative activity over Rd3BB (SEQ ID NO: 13))"}, {"measurement": "Relative Activity of GLA Variants After Challenge at pH 8.2", "setting": "[3]", "value": "+ (+ = 0.5 to 1.5 relative activity over Rd3BB (SEQ ID NO: 13))"}, {"measurement": "Relative Activity of GLA Variants After Challenge with Serum", "setting": "[4]", "value": "+ (+ = 0.5 to 1.5 relative activity over Rd3BB (SEQ ID NO: 13))"}]}
